The record followed here is US11702475B2, “Cysteine engineered fibronectin type III domain binding molecules” (Janssen Biotech, Inc., priority 2013, dated 2023).

The target of one test is EGFR (Homo sapiens, UniProt P00533). Description: Inhibition of EGF-stimulated EGFR phosphorylation in A431 cells (phospho-EGFR assay). To be noted: 50 ng/mL EGF, EGFR Tyr1173. The format is cell-based. Here is the method:
Purified EGFR-binding FN3 domains were tested for their ability to inhibit EGF-stimulated phosphorylation of EGFR in A431 cells at a single concentration. EGFR phosphorylation was monitored using the EGFR phospho(Tyr1173) kit (Meso Scale Discovery). Cells were plated at 20,000/well in clear 96-well tissue culture-treated plates (Nunc) in 100 μL/well of RPMI medium (Gibco) containing GlutaMAX™ with 10% fetal bovine serum (FBS) (Gibco) and allowed to attach overnight at 37° C. in a humidified 5% CO2 atmosphere. Culture medium was removed completely and cells were starved overnight in 100 μL/well of medium containing no FBS at 37° C. in a humidified 5% CO2 atmosphere. […] Signals were detected by addition of 150 μL/well of Read Buffer (Meso Scale Discovery) and reading on a SECTOR® Imager 6000 instrument (Meso Scale Discovery) using manufacturer-installed assay-specific default settings. Percent inhibition of the EGF-stimulated positive control signal was calculated for each EGFR-binding FN3 domain.
Data were plotted as electrochemiluminescence signal against the logarithm of the FN3 domain molar concentration and IC50 values were determined by fitting data to a sigmoidal dose response with variable slope using GraphPad Prism 4 (GraphPad Software). […]

Another test deals with NCI-H322 cells. Description: NCI-H322 growth assay. Type of test: cell-based, human. Particulars: 120 hours, CellTiter-Glo. Here is the method:
Inhibition of EGFR-dependent cell growth was assessed by measuring viability of the EGFR over-expressing human tumor cell lines, NCI-H292 and NCI-H322 (American Type Culture Collection, cat. #CRL-1848 & #CRL-5806, respectively), following exposure to EGFR-binding FN3 domains. Cells were plated at 500 cells/well (NCI-H292) or 1,000 cells/well (NCI-H322) in opaque white 96-well tissue culture-treated plates (Nunc) in 1004/well of RPMI medium (Gibco) containing GlutaMAX™ and 10 mM HEPES, supplemented with 10% heat inactivated fetal bovine serum (Gibco) and 1% penicillin/streptomycin (Gibco), and allowed to attach overnight at 37° C. in a humidified 5% CO2 atmosphere. Cells were treated by addition of 54/well of phosphate-buffered saline (PBS) containing a concentration range of EGFR-binding FN3 domains. […] Viable cells were detected by addition of 754/well of CellTiter-Glo® reagent (Promega), followed by mixing on a plate shaker for 2 minutes, and incubation in the dark at room temperature for a further 10 minutes. Plates were read on a SpectraMax M5 plate reader (Molecular Devices) set to luminescence mode, with a read time of 0.5 seconds/well against a blank of medium only. […] IC50 values were determined by fitting data to the equation for a sigmoidal dose response with variable slope using GraphPad Prism 4 (GraphPad Software).

The term IC50 denotes the point on the concentration scale where inhibition reaches its midpoint. A lower IC50 goes with higher potency.

B1: P54AR4-47: EGFR-binding FN3 domain, SEQ ID NO: 20 (protein)
chain: LPAPKNLVVSEVTEDSLRLSWGYNGDHFDSFLIQYQESEKVGEAINLTVPGSERSYDLTGLKPGTEYTVSIYGVHNVYKDTNMRGLPLSAEFTT
modifications: EGFR binding FN3 domain
With B1, the 50% inhibitory concentration (IC50) worked out at 295 nM with EGFR and 39 nM in the test with NCI-H322 cells.
